Reference: patent US20240218035

Target: inactive hepatocyte growth factor (pro-HGF), single-stranded form, in CHO culture supernatant
Sequence (chain, as listed by the source): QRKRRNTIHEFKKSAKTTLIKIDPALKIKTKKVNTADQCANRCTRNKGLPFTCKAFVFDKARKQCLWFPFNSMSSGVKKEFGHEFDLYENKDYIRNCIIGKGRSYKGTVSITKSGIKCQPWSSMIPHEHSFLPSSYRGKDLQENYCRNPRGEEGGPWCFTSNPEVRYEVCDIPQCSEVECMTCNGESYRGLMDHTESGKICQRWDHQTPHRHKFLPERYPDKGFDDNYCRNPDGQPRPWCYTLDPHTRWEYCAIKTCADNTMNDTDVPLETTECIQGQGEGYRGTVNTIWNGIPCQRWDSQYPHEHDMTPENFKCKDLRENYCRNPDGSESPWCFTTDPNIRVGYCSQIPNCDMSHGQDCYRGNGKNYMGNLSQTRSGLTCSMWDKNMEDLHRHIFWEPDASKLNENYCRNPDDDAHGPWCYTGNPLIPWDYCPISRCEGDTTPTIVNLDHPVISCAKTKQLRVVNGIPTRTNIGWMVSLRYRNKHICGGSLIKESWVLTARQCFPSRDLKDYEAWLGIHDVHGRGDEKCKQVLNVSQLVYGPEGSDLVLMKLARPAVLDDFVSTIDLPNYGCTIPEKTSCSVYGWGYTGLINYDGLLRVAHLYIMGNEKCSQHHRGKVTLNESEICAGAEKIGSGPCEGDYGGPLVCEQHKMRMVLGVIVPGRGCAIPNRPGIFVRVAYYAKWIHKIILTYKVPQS

B1: active hepatocyte growth factor activator (active HGFA), as activated HGFA culture supernatant from CHO cells (protein)
chain: VQLSPDLLATLPEPASPGRQACGRRHKKRTFLRPRIIGGSSSLPGSHPWLAAIYIGDSFCAGSLVHTCWVVSAAHCFSHSPPRDSVSVVLGQHFFNRTTDVTQTFGIEKYIPYTLYSVFNPSDHDLVLIRLKKKGDRCATRSQFVQPICLPEPGSTFPAGHKCQIAGWGHLDENVSGYSSSLREALVPLVADHKCSSPEVYGADISPNMLCAGYFDCKSDACQGDSGGPLACEKNGVAYLYGIISWGDGCGRLHKPGVYTRVANYVDWINDRIRPPRRLVAPS
activation state of pro-HGF confirmed with SDS-PAGE (conversion of the single strand into α and β chains) after about 20 hours of reaction at 25° C.: under a reductive condition after activation the single strand substance had disappeared and separated into α and β chains, and thus sufficient activation of pro-HGF was confirmed
